Reference: PMC9363410

Columns and labels:
[1] = biological target: OsOTUB1-cat (OsOTUB1 residues 74 to 324, catalytic domain) (Oryza sativa); experiment: cross-linking; 20 µM DUB with 100 µM Ub-PA in gel filtration buffer (50 mM Tris-HCl pH 8, 150 mM NaCl, 2 mM DTT), 37 °C, samples at time points, SDS-PAGE, Coomassie
[2] = biological target: OsOTUB1-cat (OsOTUB1 residues 74 to 324, catalytic domain) (Oryza sativa)

Row | percent of Ub-PA crosslinked in 1 min [1] [%] | KM of OsOTUB1-cat for the variant, fold reduction of affinity against Met1-diUb WT (Michaelis-Menten kinetics by HPLC, two replicates) [2] [fold] | Substance
1 | > 90 | – | C-terminally propargylated Ub (Ub-PA)
2 | – | 3.65 to 4.3 | Met1-diUb Q2A^prox (from UniProt P0CG48 1-76) (natural protein)
3 | – | 4.2 to 6.23 | Met1-diUb Q2E^prox (from UniProt P0CG48 1-76) (natural protein)
4 | – | 1.45 to 1.58 | Met1-diUb Q2H^prox (from UniProt P0CG48 1-76) (natural protein)
5 | – | 1.52 to 1.91 | Met1-diUb Q2N^prox (from UniProt P0CG48 1-76) (natural protein)
